Data as given in patent publication US20110300138A1 (published 2011).
Read-outs that look alike come from different tables or passages of the source.

Legend:
Experiment in all cases: cell-based or functional assay
[1] = target: wild type TSHR (human TSH receptor) expressed in CHO cells (human) (UniProt P16473)
[2] = target: TSHR with Trp258 mutated to Ala, expressed in CHO cells (human) (UniProt P16473)
[3] = target: TSHR with Arg80 mutated to Ala expressed in CHO cells (human) (UniProt P16473)
[4] = target: wild type TSHR expressed in CHO cells (human) (UniProt P16473)
[5] = target: wild type TSHR (human TSH receptor) expressed in CHO cells (human) (UniProt P16473); remark: listed apart in the source
[6] = target: TSHR with Arg255 mutated to Ala, expressed in CHO cells (human) (UniProt P16473)
[7] = target: TSHR with Glu178 mutated to Ala expressed in CHO cells (human) (UniProt P16473)
[8] = target: TSHR with Lys183 mutated to Ala expressed in CHO cells (human) (UniProt P16473)
[9] = target: TSHR with Lys250 mutated to Ala (expressed in CHO cells) (human) (UniProt P16473)
[10] = target: TSHR with Asp203 mutated to Ala expressed in CHO cells (human) (UniProt P16473)
[11] = target: wild type TSHR expressed in CHO cells (human) (UniProt P16473); remark: listed apart in the source
[12] = target: TSHR with Lys183 mutated to Asp expressed in CHO cells (human) (UniProt P16473)
[13] = target: TSHR with Lys58 mutated to Ala expressed in CHO cells (human) (UniProt P16473)
[14] = target: human TSHR with Glu251 mutated to Ala expressed in CHO cells (human) (UniProt P16473)
[15] = target: wild type TSHR expressed in CHO cells (human) (UniProt P16473); remark: listed apart in the source
[16] = target: wild type TSHR (human TSH receptor) expressed in CHO cells (human) (UniProt P16473); remark: listed apart in the source
[17] = target: TSHR with Thr257 mutated to Ala, expressed in CHO cells (human) (UniProt P16473)
[18] = target: wild type TSHR expressed in CHO cells (human) (UniProt P16473); remark: listed apart in the source
[19] = target: TSHR with Tyr82 mutated to Ala expressed in CHO cells (human) (UniProt P16473)

Substance: TSH (thyroid stimulating hormone) (ligand)
- Cyclic AMP produced; TSH 3 ng/mL [1]: 58.8 pmol/mL
- Cyclic AMP produced; TSH (2) 3 ng/mL, run at the end of assay [1]: 69.6 pmol/mL
- % inhibition of TSH stimulation; TSH (2), run at the end of assay [2]: 20%
- Cyclic AMP produced; TSH 3 ng/mL [2]: 59.9 pmol/mL
- Cyclic AMP produced; TSH (2) 3 ng/mL, run at the end of assay [2]: 47.8 pmol/mL
- Mutated/wild type (%) of cyclic AMP produced; TSH 3 ng/mL [2]: 102%
- Cyclic AMP produced at 0.01 ng/mL TSH [3]: 4.06 pmol/mL
- Cyclic AMP produced at 0.03 ng/mL TSH [3]: 6.19 pmol/mL
- Cyclic AMP produced at 0.1 ng/mL TSH [3]: 13.3 pmol/mL
- Cyclic AMP produced at 0.3 ng/mL TSH [3]: 27.7 pmol/mL
- Cyclic AMP produced at 1 ng/mL TSH [3]: 54.5 pmol/mL
- Cyclic AMP produced at 3 ng/mL TSH [3]: 57 pmol/mL
- Mutated/Wild type (%) of cyclic AMP at 0.01 ng/mL TSH [3]: 203%
- Mutated/Wild type (%) of cyclic AMP at 0.03 ng/mL TSH [3]: 168%
- Mutated/Wild type (%) of cyclic AMP at 0.1 ng/mL TSH [3]: 146%
- Mutated/Wild type (%) of cyclic AMP at 0.3 ng/mL TSH [3]: 125%
- Cyclic AMP produced at 0.01 ng/mL TSH [4]: 2 pmol/mL
- Cyclic AMP produced at 0.03 ng/mL TSH [4]: 3.68 pmol/mL
- Cyclic AMP produced at 0.1 ng/mL TSH [4]: 9.1 pmol/mL
- Cyclic AMP produced at 0.3 ng/mL TSH [4]: 22.2 pmol/mL
- Cyclic AMP produced at 1 ng/mL TSH [4]: 57.5 pmol/mL
- Cyclic AMP produced at 3 ng/mL TSH [4]: 58.5 pmol/mL
- % inhibition of TSH stimulation, Exp 1: TSH (2) [5]: 0%
- % inhibition of TSH stimulation, Exp 2: TSH (2) [5]: 0%
- % inhibition of TSH stimulation: TSH (2) [5]: 0%
- % inhibition of TSH stimulation; TSH (2), run at the end of assay [5]: 0%
- Cyclic AMP produced; TSH 3 ng/mL [5]: 62.4 pmol/mL
- Cyclic AMP produced; TSH (2) 3 ng/mL, run at the end of assay [5]: 68.4 pmol/mL
- % inhibition of TSH stimulation; TSH (2), run at the end of assay [6]: 7%
- Cyclic AMP produced; TSH 3 ng/mL [6]: 63.9 pmol/mL
- Cyclic AMP produced; TSH (2) 3 ng/mL, run at the end of assay [6]: 59.6 pmol/mL
- Mutated/wild type (%) of cyclic AMP produced; TSH 3 ng/mL [6]: 102%
- Mutated/wild type (%) of cyclic AMP produced; TSH (2) 3 ng/mL, run at the end of assay [6]: 87%
- % inhibition of TSH stimulation; TSH (2), run at the end of assay; Exp 1 [7]: 12%
- % inhibition of TSH stimulation; TSH (2), run at the end of assay; Exp 2 [7]: 5%
- Cyclic AMP produced; TSH 3 ng/mL; Exp 1 [7]: 56.6 pmol/mL
- Cyclic AMP produced; TSH 3 ng/mL; Exp 2 [7]: 46.2 pmol/mL
- Cyclic AMP produced; TSH (2) 3 ng/mL, run at the end of assay; Exp 1 [7]: 50.1 pmol/mL
- Cyclic AMP produced; TSH (2) 3 ng/mL, run at the end of assay; Exp 2 [7]: 44.1 pmol/mL
- Mutated/wild type (%) of cyclic AMP produced; TSH 3 ng/mL; Exp 1 [7]: 107%
- Mutated/wild type (%) of cyclic AMP produced; TSH 3 ng/mL; Exp 2 [7]: 53%
- Mutated/wild type (%) of cyclic AMP produced; TSH (2) 3 ng/mL, run at the end of assay; Exp 1 [7]: 65%
- Mutated/wild type (%) of cyclic AMP produced; TSH (2) 3 ng/mL, run at the end of assay; Exp 2 [7]: 50%
- % inhibition of TSH stimulation, Exp 1: TSH (2) [8]: 18%
- % inhibition of TSH stimulation, Exp 2: TSH (2) [8]: 23%
- Cyclic AMP, Mutated/wild type (%), Exp 1: TSH 3 ng/mL [8]: 124%
- Cyclic AMP, Mutated/wild type (%), Exp 1: TSH (2) [8]: 74%
- Cyclic AMP, Mutated/wild type (%), Exp 2: TSH 3 ng/mL [8]: 128%
- % inhibition of TSH stimulation; TSH (2), run at the end of assay, no antibody; Experiment 1 [9]: 10%
- % inhibition of TSH stimulation; TSH (2), run at the end of assay, no antibody; Experiment 2 [9]: 7%
- Cyclic AMP produced; TSH 3 ng/mL alone; Experiment 1 [9]: 64.7 pmol/mL
- Cyclic AMP produced; TSH 3 ng/mL alone; Experiment 2 [9]: 55 pmol/mL
- Cyclic AMP produced; TSH (2) 3 ng/mL, run at the end of assay; Experiment 1 [9]: 58.3 pmol/mL
- Cyclic AMP produced; TSH (2) 3 ng/mL, run at the end of assay; Experiment 2 [9]: 51.1 pmol/mL
- Mutated/wild type (%) of cyclic AMP produced; TSH 3 ng/mL alone; Experiment 1 [9]: 83%
- Mutated/wild type (%) of cyclic AMP produced; TSH 3 ng/mL alone; Experiment 2 [9]: 64%
- % inhibition of TSH stimulation: TSH (2) [10]: 0%
- Cyclic AMP, Mutated/wild type (%): TSH 3 ng/mL [10]: 76%
- Cyclic AMP, Mutated/wild type (%): TSH (2) [10]: 87%
- % inhibition of TSH stimulation; TSH (2), run at the end of assay [11]: 0%
- % inhibition of TSH stimulation; TSH (2), run at the end of assay, no antibody; Experiment 1 [11]: 0%
- % inhibition of TSH stimulation; TSH (2), run at the end of assay, no antibody; Experiment 2 [11]: 12%
- % inhibition of TSH stimulation; TSH (2), run at the end of assay; Exp 1 [11]: 0%
- % inhibition of TSH stimulation; TSH (2), run at the end of assay; Exp 2 [11]: 0%
- Cyclic AMP produced at 0.01 ng/mL TSH [11]: 3.11 pmol/mL
- Cyclic AMP produced at 0.03 ng/mL TSH [11]: 4.43 pmol/mL
- Cyclic AMP produced at 0.1 ng/mL TSH [11]: 10.1 pmol/mL
- Cyclic AMP produced at 0.3 ng/mL TSH [11]: 41.2 pmol/mL
- Cyclic AMP produced at 1 ng/mL TSH [11]: 74.5 pmol/mL
- Cyclic AMP produced at 3 ng/mL TSH [11]: 95.3 pmol/mL
- Cyclic AMP produced; TSH 3 ng/mL [11]: 85.8 pmol/mL
- Cyclic AMP produced; TSH 3 ng/mL alone; Experiment 1 [11]: 77.9 pmol/mL
- Cyclic AMP produced; TSH 3 ng/mL alone; Experiment 2 [11]: 86.5 pmol/mL
- Cyclic AMP produced; TSH 3 ng/mL; Exp 1 [11]: 52.9 pmol/mL
- Cyclic AMP produced; TSH 3 ng/mL; Exp 2 [11]: 87.2 pmol/mL
- Cyclic AMP produced; TSH (2) 3 ng/mL, run at the end of assay [11]: 97.8 pmol/mL
- Cyclic AMP produced; TSH (2) 3 ng/mL, run at the end of assay; Exp 1 [11]: 77.2 pmol/mL
- Cyclic AMP produced; TSH (2) 3 ng/mL, run at the end of assay; Exp 2 [11]: 88.1 pmol/mL
- Cyclic AMP produced; TSH (2) 3 ng/mL, run at the end of assay; Experiment 1 [11]: 84.5 pmol/mL
- Cyclic AMP produced; TSH (2) 3 ng/mL, run at the end of assay; Experiment 2 [11]: 75.9 pmol/mL
- % inhibition of TSH stimulation; TSH (2), run at the end of assay [12]: 20%
- Cyclic AMP produced; TSH 3 ng/mL [12]: 117 pmol/mL
- Cyclic AMP produced; TSH (2) 3 ng/mL, run at the end of assay [12]: 93.4 pmol/mL
- Mutated/wild type (%) of cyclic AMP produced; TSH 3 ng/mL [12]: 137%
- Cyclic AMP produced at 0.01 ng/mL TSH [13]: 7.16 pmol/mL
- Cyclic AMP produced at 0.03 ng/mL TSH [13]: 10 pmol/mL
- Cyclic AMP produced at 0.1 ng/mL TSH [13]: 17.2 pmol/mL
- Cyclic AMP produced at 0.3 ng/mL TSH [13]: 45.9 pmol/mL
- Cyclic AMP produced at 1 ng/mL TSH [13]: 75.2 pmol/mL
- Cyclic AMP produced at 3 ng/mL TSH [13]: 83.7 pmol/mL
- Mutated/Wild type (%) of cyclic AMP at 0.01 ng/mL TSH [13]: 230%
- Mutated/Wild type (%) of cyclic AMP at 0.03 ng/mL TSH [13]: 226%
- Mutated/Wild type (%) of cyclic AMP at 0.1 ng/mL TSH [13]: 171%
- Mutated/Wild type (%) of cyclic AMP at 0.3 ng/mL TSH [13]: 111%
- Mutated/Wild type (%) of cyclic AMP at 1 ng/mL TSH [13]: 101%
- Mutated/Wild type (%) of cyclic AMP at 3 ng/mL TSH [13]: 88%
- % inhibition of TSH stimulation; TSH (2), run at the end of assay, no antibody [14]: 0%
- Cyclic AMP produced; TSH 3 ng/mL alone [14]: 76.1 pmol/mL
- Cyclic AMP produced; TSH (2) 3 ng/mL, run at the end of assay [14]: 87.4 pmol/mL
- Mutated/wild type (%) of cyclic AMP produced; TSH 3 ng/mL alone [14]: 78%
- Mutated/wild type (%) of cyclic AMP produced; TSH (2) 3 ng/mL, run at the end of assay [14]: 84%
- % inhibition of TSH stimulation; TSH (2), run at the end of assay, no antibody [15]: 0%
- Cyclic AMP produced; TSH 3 ng/mL alone [15]: 97.5 pmol/mL
- Cyclic AMP produced; TSH (2) 3 ng/mL, run at the end of assay [15]: 104 pmol/mL
- Cyclic AMP produced; TSH 3 ng/mL [16]: 66.1 pmol/mL
- Cyclic AMP produced; TSH (2) 3 ng/mL, run at the end of assay [16]: 93 pmol/mL
- % inhibition of TSH stimulation; TSH (2), run at the end of assay [17]: 8%
- Cyclic AMP produced; TSH 3 ng/mL [17]: 93.2 pmol/mL
- Cyclic AMP produced; TSH (2) 3 ng/mL, run at the end of assay [17]: 85.4 pmol/mL
- Mutated/wild type (%) of cyclic AMP produced; TSH 3 ng/mL [17]: 141%
- Cyclic AMP produced at 0.01 ng/mL TSH [18]: 1.01 pmol/mL
- Cyclic AMP produced at 0.03 ng/mL TSH [18]: 4.39 pmol/mL
- Cyclic AMP produced at 0.1 ng/mL TSH [18]: 9.67 pmol/mL
- Cyclic AMP produced at 0.3 ng/mL TSH [18]: 29.8 pmol/mL
- Cyclic AMP produced at 1 ng/mL TSH [18]: 53.3 pmol/mL
- Cyclic AMP produced at 3 ng/mL TSH [18]: 56.6 pmol/mL
- Cyclic AMP produced at 0.01 ng/mL TSH [19]: 2.6 pmol/mL
- Cyclic AMP produced at 0.03 ng/mL TSH [19]: 4.1 pmol/mL
- Cyclic AMP produced at 0.1 ng/mL TSH [19]: 9.64 pmol/mL
- Cyclic AMP produced at 0.3 ng/mL TSH [19]: 33.7 pmol/mL
- Cyclic AMP produced at 1 ng/mL TSH [19]: 50 pmol/mL
- Cyclic AMP produced at 3 ng/mL TSH [19]: 61.3 pmol/mL
- Mutated/Wild type (%) of cyclic AMP at 0.01 ng/mL TSH [19]: 257%
- Mutated/Wild type (%) of cyclic AMP at 0.03 ng/mL TSH [19]: 93%
- Mutated/Wild type (%) of cyclic AMP at 0.1 ng/mL TSH [19]: 100%
- Mutated/Wild type (%) of cyclic AMP at 0.3 ng/mL TSH [19]: 113%
- Mutated/Wild type (%) of cyclic AMP at 3 ng/mL TSH [19]: 108%
